Assay results taken from patent US20170306033A1 (Amgen, published 2017).

Columns and labels:
human CGRP receptor = human CGRP receptor (human, UniProt Q16602 23-461; O60894 27-148); assay: cell-based or functional assay
human PAC1 receptor = target: T1, human PAC1 receptor (human, UniProt P41586 21-468); assay: cell-based or functional assay
T1 sequence: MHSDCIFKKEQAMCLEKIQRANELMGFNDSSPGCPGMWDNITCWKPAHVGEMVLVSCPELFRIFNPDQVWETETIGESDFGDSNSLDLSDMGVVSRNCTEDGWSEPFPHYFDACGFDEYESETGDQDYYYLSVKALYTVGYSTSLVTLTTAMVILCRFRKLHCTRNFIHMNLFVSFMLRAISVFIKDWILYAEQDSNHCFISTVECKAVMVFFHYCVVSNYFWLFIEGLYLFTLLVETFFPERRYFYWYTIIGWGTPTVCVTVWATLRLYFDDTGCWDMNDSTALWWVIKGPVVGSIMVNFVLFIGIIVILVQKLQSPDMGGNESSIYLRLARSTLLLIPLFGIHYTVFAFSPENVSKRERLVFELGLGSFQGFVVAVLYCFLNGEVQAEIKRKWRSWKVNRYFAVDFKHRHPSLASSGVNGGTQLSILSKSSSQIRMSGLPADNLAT

Sequence of human CGRP receptor (Q16602 23-461 limits assumed, chain 1 of 2): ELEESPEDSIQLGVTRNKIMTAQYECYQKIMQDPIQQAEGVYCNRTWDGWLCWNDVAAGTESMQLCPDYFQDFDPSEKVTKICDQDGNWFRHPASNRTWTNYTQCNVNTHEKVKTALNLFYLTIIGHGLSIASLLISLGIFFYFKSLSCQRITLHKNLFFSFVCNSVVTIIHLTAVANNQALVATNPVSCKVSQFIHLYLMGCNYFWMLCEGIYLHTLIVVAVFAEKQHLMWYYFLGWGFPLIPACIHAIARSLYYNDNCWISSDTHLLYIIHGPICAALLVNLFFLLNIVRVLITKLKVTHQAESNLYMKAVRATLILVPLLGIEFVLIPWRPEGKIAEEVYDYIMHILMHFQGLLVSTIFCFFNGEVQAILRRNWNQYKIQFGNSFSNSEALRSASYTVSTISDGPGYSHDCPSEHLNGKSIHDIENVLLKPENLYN
Sequence of human CGRP receptor (O60894 27-148 limits assumed, chain 2 of 2): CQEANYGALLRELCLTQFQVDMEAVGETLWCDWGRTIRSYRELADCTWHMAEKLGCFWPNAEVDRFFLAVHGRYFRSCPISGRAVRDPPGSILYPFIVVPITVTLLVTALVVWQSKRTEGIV

Row | Binder | % inhibition of human CGRPR (human CGRP receptor) [%] | % inhibition of human PAC1 (human PAC1 receptor) [%]
1 | iPS:327686 (bispecific antibody, human IgG1, kappa, N297G) light 1: not shown heavy 1: not shown light 2: EIVLTQSPGTLSLSPGERATLSCRASQSVSSGYLTWYQQKPGQAPRLLIYGASSRATGIPDRFSGSGSGTDFTLTISRLEPEDFAVYYCQQYGNSLSRFGQGTKLEIKRTVAAPSVFIFPPSDEQLKSGTASVVCLLNNFYPREAKVQWKVDNALQSGNSQESVTEQDSKDSTYSLKSTLTLSKADYEKHKVYACEVTHQGLSSPVTKSFNRGEC heavy 2: not shown | 87 | 69
2 | iPS:327687 (bispecific antibody, human IgG1, kappa, N297G) light 1: DIQLTQSPSFLSASVGDRVTITCRASQSIGRSLHWYQQKPGKAPKLLIKYASQSLSGVPSRFSGSGSGTEFTLTISSLQPEDFATYYCHQSSRLPFTFGPGTKVDIKRTVAAPSVFIFPPSDEQLKSGTASVVCLLNNFYPREAKVQWKVDNALQSGNSQESVTEQDSKDSTYSLESTLTLSKADYEKHKVYACEVTHQGLSSPVTKSFNRGEC heavy 1: not shown light 2: EIVLTQSPGTLSLSPGERATLSCRASQSVSSGYLTWYQQKPGQAPRLLIYGASSRATGIPDRFSGSGSGTDFTLTISRLEPEDFAVYYCQQYGNSLSRFGQGTKLEIKRTVAAPSVFIFPPSDEQLKSGTASVVCLLNNFYPREAKVQWKVDNALQSGNSQESVTEQDSKDSTYSLKSTLTLSKADYEKHKVYACEVTHQGLSSPVTKSFNRGEC heavy 2: not shown | 91 | 62
3 | iPS:327689 (bispecific antibody, human IgG1, kappa, lambda, N297G) light 1: not shown heavy 1: not shown light 2: QSVLTQPPSVSAAPGQKVTISCSGSSSNIGNNYVSWYQQLPGTAPKLLIYDNNKRPSGIPDRFSGSKSGTSTTLGITGLQTGDEADYYCGTWDSRLSAVVFGGGTKLTVLGQPKANPTVTLFPPSSEELQANKATLVCLISDFYPGAVTVAWKADGSPVKAGVETTKPSKQSNNKYAAKSYLSLTPEQWKSHRSYSCQVTHEGSTVEKTVAPTECS heavy 2: QVQLVESGGGVVQPGRSLRLSCAASGFTFSSFGMHWVRQAPGKGLEWVAVISFDGSIKYSVDSVKGRFTISRDNSKNTLFLQMNSLRAEDTAVYYCARDRLNYYESSGYYHYKYYGMAVWGQGTTVTVSSASTKGPSVFPLAPSSKSTSGGTAALGCLVKDYFPEPVTVSWNSGALTSGVHTFPAVLQSSGLYSLESVVTVPSSSLGTQTYICNVNHKPSNTKVDKKVEPKSCDKTHTCPPCPAPELLGGPSVFLFPPKPKDTLMISRTPEVTCVVVDVSHEDPEVKFNWYVDGVEVHNAKTKPCEEQYGSTYRCVSVLTVLHQDWLNGKEYKCKVSNKALPAPIEKTISKAKGQPREPQVYTLPPSRKEMTKNQVSLTCLVKGFYPSDIAVEWESNGQPENNYKTTPPVLKSDGSFFLYSKLTVDKSRWQQGNVFSCSVMHEALHNHYTQKSLSLSPGK | 78 | 86
4 | iPS:327691 (bispecific antibody, human IgG1, kappa, lambda, N297G) light 1: DIQLTQSPSFLSASVGDRVTITCRASQSIGRSLHWYQQKPGKAPKLLIKYASQSLSGVPSRFSGSGSGTEFTLTISSLQPEDFATYYCHQSSRLPFTFGPGTKVDIKRTVAAPSVFIFPPSDEQLKSGTASVVCLLNNFYPREAKVQWKVDNALQSGNSQESVTEQDSKDSTYSLESTLTLSKADYEKHKVYACEVTHQGLSSPVTKSFNRGEC heavy 1: not shown light 2: QSVLTQPPSVSAAPGQKVTISCSGSSSNIGNNYVSWYQQLPGTAPKLLIYDNNKRPSGIPDRFSGSKSGTSTTLGITGLQTGDEADYYCGTWDSRLSAVVFGGGTKLTVLGQPKANPTVTLFPPSSEELQANKATLVCLISDFYPGAVTVAWKADGSPVKAGVETTKPSKQSNNKYAAKSYLSLTPEQWKSHRSYSCQVTHEGSTVEKTVAPTECS heavy 2: QVQLVESGGGVVQPGRSLRLSCAASGFTFSSFGMHWVRQAPGKGLEWVAVISFDGSIKYSVDSVKGRFTISRDNSKNTLFLQMNSLRAEDTAVYYCARDRLNYYESSGYYHYKYYGMAVWGQGTTVTVSSASTKGPSVFPLAPSSKSTSGGTAALGCLVKDYFPEPVTVSWNSGALTSGVHTFPAVLQSSGLYSLESVVTVPSSSLGTQTYICNVNHKPSNTKVDKKVEPKSCDKTHTCPPCPAPELLGGPSVFLFPPKPKDTLMISRTPEVTCVVVDVSHEDPEVKFNWYVDGVEVHNAKTKPCEEQYGSTYRCVSVLTVLHQDWLNGKEYKCKVSNKALPAPIEKTISKAKGQPREPQVYTLPPSRKEMTKNQVSLTCLVKGFYPSDIAVEWESNGQPENNYKTTPPVLKSDGSFFLYSKLTVDKSRWQQGNVFSCSVMHEALHNHYTQKSLSLSPGK | 73 | 25
5 | iPS:328001 (bispecific antibody, human IgG2, kappa, lambda) light 1: EIVLTQSPATLSLSPGERATLSCRASQSVGRSLHWYQQKPGQAPRLLIKYASQSLSGIPARFSGSGSGTDFTLTISSLEPEDFAVYYCHQSSRLPFTFGPGTKVDIKRTVAAPSVFIFPPSDEQLKSGTASVVCLLNNFYPREAKVQWKVDNALQSGNSQESVTEQDSKDSTYSLESTLTLSKADYEKHKVYACEVTHQGLSSPVTKSFNRGEC heavy 1: QVQLVESGGGVVQPGRSLRLSCAASGFTFSRFAMHWVRQAPGKGLEWVAVISYDGGNKYYAESVKGRFTISRDNSKNTLYLQMNSLRAEDTALFYCARGYDVLTGYPDYWGQGTLVTVSSASTKGPSVFPLAPCSRSTSESTAALGCLVKDYFPEPVTVSWNSGALTSGVHTFPAVLQSSGLYSLKSVVTVPSSNFGTQTYTCNVDHKPSNTKVDKTVERKCCVECPPCPAPPVAGPSVFLFPPKPKDTLMISRTPEVTCVVVDVSHEDPEVQFNWYVDGVEVHNAKTKPREEQFNSTFRVVSVLTVVHQDWLNGKEYKCKVSNKGLPAPIEKTISKTKGQPREPQVYTLPPSREEMTKNQVSLTCLVDGFYPSDIAVEWESNGQPENNYDTTPPMLDSDGSFFLYSDLTVDKSRWQQGNVFSCSVMHEALHNHYTQKSLSLSPGK light 2: QSVLTQPPSVSAAPGQKVTISCSGSSSNIGNNYVSWYQQLPGTAPKLLIYDNNKRPSGIPDRFSGSKSGTSTTLGITGLQTGDEADYYCGTWDSRLSAVVFGGGTKLTVLGQPKANPTVTLFPPSSEELQANKATLVCLISDFYPGAVTVAWKADGSPVKAGVETTKPSKQSNNKYAAKSYLSLTPEQWKSHRSYSCQVTHEGSTVEKTVAPTECS heavy 2: QVQLVESGGGVVQPGRSLRLSCAASGFTFSSFGMHWVRQAPGKGLEWVAVISFDGSIKYSVDSVKGRFTISRDNSKNTLFLQMNSLRAEDTAVYYCARDRLNYYDSSGYYHYKYYGMAVWGQGTTVTVSSASTKGPSVFPLAPCSRSTSESTAALGCLVKDYFPEPVTVSWNSGALTSGVHTFPAVLQSSGLYSLESVVTVPSSNFGTQTYTCNVDHKPSNTKVDKTVERKCCVECPPCPAPPVAGPSVFLFPPKPKDTLMISRTPEVTCVVVDVSHEDPEVQFNWYVDGVEVHNAKTKPREEQFNSTFRVVSVLTVVHQDWLNGKEYKCKVSNKGLPAPIEKTISKTKGQPREPQVYTLPPSRKKMTKNQVSLTCLVKGFYPSDIAVEWESNGQPENNYKTTPPMLKSDGSFFLYSKLTVDKSRWQQGNVFSCSVMHEALHNHYTQKSLSLSPGK | 65 | 95
6 | iPS:327690 (bispecific antibody, human IgG1, kappa, lambda, N297G) light 1: not shown heavy 1: not shown light 2: QSVLTQPPSVSAAPGQKVTISCSGSSSNIGNNYVSWYQQLPGTAPKLLIYDNNKRPSGIPDRFSGSKSGTSTTLGITGLQTGDEADYYCGTWDSRLSAVVFGGGTKLTVLGQPKANPTVTLFPPSSEELQANKATLVCLISDFYPGAVTVAWKADGSPVKAGVETTKPSKQSNNKYAAKSYLSLTPEQWKSHRSYSCQVTHEGSTVEKTVAPTECS heavy 2: QVQLVESGGGVVQPGRSLRLSCAASGFTFSSFGMHWVRQAPGKGLEWVAVISFDGSIKYSVDSVKGRFTISRDNSKNTLFLQMNSLRAEDTAVYYCARDRLNYYESSGYYHYKYYGMAVWGQGTTVTVSSASTKGPSVFPLAPSSKSTSGGTAALGCLVKDYFPEPVTVSWNSGALTSGVHTFPAVLQSSGLYSLESVVTVPSSSLGTQTYICNVNHKPSNTKVDKKVEPKSCDKTHTCPPCPAPELLGGPSVFLFPPKPKDTLMISRTPEVTCVVVDVSHEDPEVKFNWYVDGVEVHNAKTKPCEEQYGSTYRCVSVLTVLHQDWLNGKEYKCKVSNKALPAPIEKTISKAKGQPREPQVYTLPPSRKEMTKNQVSLTCLVKGFYPSDIAVEWESNGQPENNYKTTPPVLKSDGSFFLYSKLTVDKSRWQQGNVFSCSVMHEALHNHYTQKSLSLSPGK | 80 | 50
